In publication PMC3115401 (Traffic (Copenhagen, Denmark), 2011):
Changes are numbered by the printed parent chain. In names and notes the source's numbering stands.

T1: GST-Rtt109 (S. cerevisiae, UniProt Q07794 1-436)
T1 sequence (looked up): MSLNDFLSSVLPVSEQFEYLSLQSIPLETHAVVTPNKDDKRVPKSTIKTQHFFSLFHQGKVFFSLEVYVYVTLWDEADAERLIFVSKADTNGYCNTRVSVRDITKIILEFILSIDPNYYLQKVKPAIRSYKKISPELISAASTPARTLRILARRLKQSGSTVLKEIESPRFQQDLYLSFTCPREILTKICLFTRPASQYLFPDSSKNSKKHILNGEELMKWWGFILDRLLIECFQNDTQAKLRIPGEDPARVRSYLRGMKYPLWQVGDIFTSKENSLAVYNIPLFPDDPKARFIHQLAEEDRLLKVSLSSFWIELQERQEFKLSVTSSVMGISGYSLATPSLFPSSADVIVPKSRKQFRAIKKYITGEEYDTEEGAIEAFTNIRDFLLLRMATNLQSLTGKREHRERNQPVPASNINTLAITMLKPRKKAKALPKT

T2: GST-Kap60 (S. cerevisiae, UniProt Q02821 1-542)
T2 sequence (looked up): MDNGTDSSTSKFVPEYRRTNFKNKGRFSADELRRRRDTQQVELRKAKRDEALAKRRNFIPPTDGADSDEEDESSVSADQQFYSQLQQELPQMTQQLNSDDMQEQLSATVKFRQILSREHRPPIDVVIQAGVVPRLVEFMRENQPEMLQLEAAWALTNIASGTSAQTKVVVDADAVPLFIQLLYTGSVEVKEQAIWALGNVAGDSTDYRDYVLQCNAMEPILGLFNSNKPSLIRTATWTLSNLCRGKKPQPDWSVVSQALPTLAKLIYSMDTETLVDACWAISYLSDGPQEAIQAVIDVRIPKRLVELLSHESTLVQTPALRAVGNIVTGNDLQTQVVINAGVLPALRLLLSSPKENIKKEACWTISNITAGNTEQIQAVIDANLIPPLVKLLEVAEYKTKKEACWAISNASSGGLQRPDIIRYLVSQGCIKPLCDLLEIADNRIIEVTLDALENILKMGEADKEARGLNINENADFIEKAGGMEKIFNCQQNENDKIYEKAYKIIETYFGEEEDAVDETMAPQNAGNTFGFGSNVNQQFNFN

B1: MBP-Vps75(1–222) (domain or fragment, S. cerevisiae, UniProt P53853 1-222, looked up)
chain: MMSDQENENEHAKAFLGLAKCEEEVDAIEREVELYRLNKMKPVYEKRDAYIDEIAEFWKIVLSQHVSFANYIRASDFKYIDTIDKIKVDWLALESEMYDTRDFSITFHFHGIEGDFKEQQVTKVFQIKKGKDDQEDGILTSEPVPIEWPQSYDSINPDLIKDKRSPEGKKKYRQGMKTIFGWFRWTGLKPGKEFPHGDSLASLFSEEIYPFCVKYYAEAQRD
B2: MBP-Vps75 wild type (natural protein, S. cerevisiae, UniProt P53853 1-264, looked up)
chain: MMSDQENENEHAKAFLGLAKCEEEVDAIEREVELYRLNKMKPVYEKRDAYIDEIAEFWKIVLSQHVSFANYIRASDFKYIDTIDKIKVDWLALESEMYDTRDFSITFHFHGIEGDFKEQQVTKVFQIKKGKDDQEDGILTSEPVPIEWPQSYDSINPDLIKDKRSPEGKKKYRQGMKTIFGWFRWTGLKPGKEFPHGDSLASLFSEEIYPFCVKYYAEAQRDLEDEEGESGLSADGDSEDDDGSLGEVDLPLSDEEPSSKKRKV
B3: MBP-Vps75(K260G, K261G) (natural protein, S. cerevisiae, UniProt P53853 1-264, looked up)
chain: B2 chain with K260G, K261G

Legend:
GST-Rtt109 = target: T1, GST-Rtt109; test: pull-down
GST-Kap60 = target: T2, GST-Kap60; test: pull-down

| Binder | binding result (GST-Rtt109) | binding result (GST-Kap60) |
| --- | --- | --- |
| B1 | binds |  |
| B2 | binds | binds |
| B3 | binds |  |
